Measurements reported in PMC4339652 (2015).

Target: T1, G3p N1 (Filamentous phage, UniProt O80297)
T1 chain: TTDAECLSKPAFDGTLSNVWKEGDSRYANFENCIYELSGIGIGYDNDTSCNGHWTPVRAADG
Assay: SPR

B1: TolA TolAIII (protein)
chain: GGGAKGNNASPAGSGNTKNNGASGADINNYAGQIKSAIESKFYDASSYAGKTCTLRIKLAPDGMLLDIKPEGGDPALCQAALAAAKLAKIPKPPSQAVYEVFKNAPLDFKP
  Kd: 14.9 µM
